ka, kd and Kd data for nine molecules are collected here from patent publication US12624096B2, “Anti-tau antibodies and methods of use thereof” (GTInvent Limited, priority 2020, dated 2026).

The target of one experiment is hT40 (Homo sapiens, UniProt P10636). The experiment is described as follows: Biacore X100 SPR, scAb captured via anti-HuCk, hT40 as analyte. The experiment is classed as binding. As to the method: Surface plasmon resonance (SPR) is widely regarded as the gold standard for real time measurement of protein-protein interactions such as antibody binding. All SPR experiments were carried out using a Biacore X100 machine and HBS EP+ running buffer (GE Healthcare). A ‘capture’ method was followed for affinity measurements, where an anti-human constant kappa chain (HuCk) antibody was conjugated to the surface of a CM5 sensor chip using an amine coupling kit and scAb molecules were immobilised via their HuCk domain. Amine coupling is a very common approach for immobilising the ligand to the chip surface. […] The capture antibody was diluted 1/100 in 10 mM Sodium acetate buffer pH 5.0 and passed over the activated chip surface for a period of at least 420 s. Final ligand immobilisation levels over 12,000 RU were deemed to be satisfactory.
Sequence of hT40 (P10636 1-441 isoform P10636-8): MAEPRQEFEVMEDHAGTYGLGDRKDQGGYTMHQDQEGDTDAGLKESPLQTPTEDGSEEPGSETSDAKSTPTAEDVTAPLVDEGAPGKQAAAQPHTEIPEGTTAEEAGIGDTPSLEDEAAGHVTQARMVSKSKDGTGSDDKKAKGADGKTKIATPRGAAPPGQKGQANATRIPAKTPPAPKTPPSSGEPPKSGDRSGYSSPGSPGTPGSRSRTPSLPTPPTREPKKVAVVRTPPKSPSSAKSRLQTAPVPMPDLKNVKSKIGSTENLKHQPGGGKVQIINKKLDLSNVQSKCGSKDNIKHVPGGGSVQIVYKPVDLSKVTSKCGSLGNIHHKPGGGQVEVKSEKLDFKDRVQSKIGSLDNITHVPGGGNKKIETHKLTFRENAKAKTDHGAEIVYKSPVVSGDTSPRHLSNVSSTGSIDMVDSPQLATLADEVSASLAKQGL
Following immobilisation, the level of each scAb to be captured was identified using the standard SPR equation with a theoretical RMax of 100 RU. Analyte MW refers to the molecular weight of hT40 or dGA/dGAE molecules, while ligand MW refers to the molecular weight of the scAbs tested. RL is the desired capture level and S refers to the stoichiometric ratio:
The scAb to be tested was added only to flow cell 2 so that flow cell 1 could act as a control to subtract any interaction with the analyte and the chip surface. Both single and multi-cycle runs were utilised using wizards developed in the Biacore X100 control software which are both accepted methods of kinetic analysis (Karlsson, R., et al. Analyzing a kinetic titration series using affinity biosensors (2006) Analytical Biochemistry 349:136-47). The multi-cycle protocol was as follows-Three start-up cycles composed of an initial capture, to the desired level, of the scAb to be tested was performed followed by a 30 s injection of glycine buffer pH 2.0 after each cycle to regenerate the chip surface. […] Following three start-up cycles increasing concentrations (0.15625 nM-100 nM) of the target to be tested were added to the chip surface after the desired scAb capture. The target was added for a 120 s association period and 420 s dissociation period followed by another regeneration, 30 s injection of glycine buffer pH 2.0 in between each cycle.
The single cycle kinetics protocol was similar and utilised the same level of scAb capture. Three start-up cycles were used followed by 5 increasing concentrations of the analyte (6.25 nM-100 nM) for an association period of 120 s followed by a dissociation period of 420 s for each concentration. In single cycle kinetics the regeneration step was performed only after the final analyte concentration was added. Binding responses were analysed in Biacore X100 evaluation software and data fitted to a 1:1 binding model to obtain kinetic and affinity characterisation.

The next experiment concerns the target htau40 (Homo sapiens, UniProt P10636). The experiment is described as follows: Biacore X100 SPR of anti-tau mAbs on immobilised htau40. The format is binding. As to the method:
For anti-tau mAb SPR measurements, htau40 was conjugated to the surface of a CM5 sensor chip using amine coupling as explained previously. Briefly, 2 μg/mL htau40 in 10 mM Sodium acetate buffer (pH 4.0) was passed over the activated chip surface (EDC/NHS) in flow cell 2 for a period for 45 s followed by blocking with 1 M ethanolamine-HCl PH 8.5. Flow cell 1 was set up as reference control and blocked simultaneously. Final immobilisation level of htau40 (Rmax) was approximately 250 RU. Following a minimum of three start-up cycles, increasing concentrations (0.78 nM-25 nM) of the mAb in HBS-EP+ buffer was added at a rate of 30 μL/min to the chip. The mAb was added for a 120 s association period and 600 s dissociation period followed by a regeneration cycle of 30 s injection of glycine buffer pH 1.5 in between each cycle. Binding responses were analysed in Biacore X100 evaluation software and data fitted to a 1:1 binding model to obtain kinetic and affinity characterisation.
For anti-tau mAb SPR measurements (Biacore X100™) and epitope mapping, the same methodologies described above (see Example 16) were followed. Kinetic rates and equilibrium binding constants of additional anti-tau mAbs and the regions recognised on hT40 are given in the Table 25 below
A general note: SPR reads the build-up and loss of mass on a sensor chip optically.

The mark [1] stands for this setting: '3a' and '3b' scAbs, Table 25, hT40.
The mark [2] stands for this setting: newly converted mAbs, Table 25 (Example 28), hT40.
The mark [3] stands for this setting: mAb, Table 27, immobilised hT40.

Sequence of htau40 (P10636 1-441 isoform P10636-8): as above

B1: 3aA6: anti-tau clone, sequence in b345 (protein)
scFv: QVRLQESGSSLVKPSQTLSLVCTVSGFPLTSNAVGWVRQAPGKAPEWLGLIDIDGDTAYNPALESRLSITRDTSKSQVSLSLSSVAIEDTAVYYCARHYDKWGYADSIDYWGPGLLVTVSSEGKSSGASGESKVDDQALLTQPSSVFGSLGQRVSITCSGSSSNVGYGDYVGWYQQVPGSAPKLLIYDATTRASGVPDRFSGSRSGNTATLTISSLQAEDEADYYCASYQNERSGVFGSGTRLTVLG
modifications: 3aA6 amino acid sequence
Consider B1, for which, in the experiment with hT40 (setting [1]), the ka came out at 19000 M⁻¹ s⁻¹ and the kd was 0.0188 s⁻¹.

B2: 3bG4: anti-tau clone, SEQ ID NO: 425 (protein)
scFv: QVQLQESGPSLVKPSQTLSLTCTISGFSLISNGVGWVRQAPGKVPEWVGDIASSGKAYSNPALKSRLSITRDTSKSQVSLSLRSVTTEDTAVYYCVRCRDGGVTYGYDIDYWGPGLLVTVSSEGKSSGASGESKVDDQAVLTQPSSVSKSLGQSVSITCSGSTSNVGSGNDVSWFQQVPGSAPKLLFYGATNRASGVPDRFSGSRSGNTATLTITSLQAEDEADYYCGSYDSNSGGIFGSGTRLTVLG
modifications: 3bG4 amino acid sequence
As to B2, in the experiment with htau40 (setting [2]), the ka turned out to be 4.54e+06 M⁻¹ s⁻¹ and the kd was 0.0002964 s⁻¹. Moreover, in the experiment with hT40 (setting [1]), the ka is 6.669e+06 M⁻¹ s⁻¹ and the kd is 0.05966 s⁻¹.

B3: 3aG3: anti-tau clone, SEQ ID NO: 424 (protein)
scFv: QVQLQESGPSLVKPSQTLSLTCTVSGFSLSSNGVGWVRQAPGKVPEWVGDISSSGKAYANPALKSRLSITRDTAKTQVFLSLSSVTTEDTAVYYCVRCRDGGVSYGYDIDYWGPGLLVTVSSEGKSSGASGESKVDDQAVLTQPPSVSGSPGQRVSITCSGSSSNIGGGNYLSWFQQVPGSAPKLLIYGATSRASGVPDRFSGSRSGNTATLTISSLQAEDEADYYCASFDTSSGGIFGAGTRLTVLG
modifications: 3aG3 amino acid sequence
For B3, in the experiment with htau40 (setting [2]), the ka was found to be 1.532e+07 M⁻¹ s⁻¹ and the kd is 0.004751 s⁻¹. In the experiment with hT40 (setting [1]), this molecule yielded a ka of 62940 M⁻¹ s⁻¹ and a kd of 0.0003869 s⁻¹.

B4: MD9/MoD9: anti-tau clone, SEQ ID NO: 373 (protein)
scFv: QVRLQESGPSLVKSSQTLSLTCTVSGFSLTRESIAWVRQAPGKVPEWLGGVGIDGTSYYSPALKSRLSITRDTSKSQASLSLSSVATEDTAMYYCARNYIDFEYWGPGLLVTVSSEGKSSGASGESKVDDQAVLTQLSSVSGSLGQRISITCSGSSSNVGIYDVSWFQQLPGSGLRTVIYGTNNRPSGVPDRFSGSRSGNTATLTISSLQSEDEAIYYCAAGDSSTIAVFGSGTRLTVLG
modifications: MD9 amino acid sequence
Regarding B4, in the experiment with htau40 (setting [2]), the ka is 66200 M⁻¹ s⁻¹ and the kd amounted to 0.001462 s⁻¹.

B5: 3bD11 (protein)
scFv: RVRLQGSGPSLVKPSQTLSLTCTVSGFSFDSYYVGWVRQAPGKALEWLGNIYSTGRAFYNPALKSRLSITRDTSKSQVSLSVSSVTIEDTALYYCVRGSYYHGGGNGMVDFFDYWSPGLLVTVSSEGKSSGASGESKVDDQVVRTQPSSVSGSLGQRVSITCSGSSSNVGYGNYVGWFQQVPGSAPKLLIYAATSRASGVPDRFSGSRSGNTATLTIDSLQAEDEADYYCSSYQRGNTGVFGSGTRLTVLG
For the molecule B5, in the experiment with htau40 (setting [2]), the ka was found to be 2.671e+06 M⁻¹ s⁻¹ and the kd was 0.003979 s⁻¹.

B6: 3bF4: anti-tau clone, SEQ ID NO: 421 (protein)
scFv: QVQLQESGPSLVKPSQTLSLTCTVSGFSLSSNGVGWVRQAPGKVPEWLGDISSVGKKYANPALKSRLSFTRDTSKSQVSLSLSSVTTEDTAVYYCVKCRDGGVTYGYDIDYWGPGLLVTVSSEGKSSGASGESKVDDQAVLTQPSSVSKSTGQTVSITCSGSSSNVGLRNYVTWFQQVPGSAPKLLIYGATSRASGIPDRFSGSRSGNTATLIISSLQAEDEADYYCASADTNDGGVFGSGTRLTVLG
modifications: 3bF4 amino acid sequence
In the case of B6, in the experiment with hT40 (setting [1]), the ka turned out to be 109300 M⁻¹ s⁻¹ and the kd came to 0.01532 s⁻¹.

B7: CE3: anti-tau clone, SEQ ID NO: 367 (protein)
scFv: QVRLQESGPSLVKPSQTLSVTCTVSGFSLISNAVGWVRQAPGKVPESLAGCSSDGKCYYNSALKSRLDITRDTSKNQISLSLSSVTTDDAAVYYCTRGYYPVYGYDYLGTIDYWGPGLLVTVSSEGKSSGASGESKVDDQAVLTQPSSVSGSLGQRVSITCSGSSSNVGRNDVAWFQQLPGSGLRTIIYGTTSRPSGIPDRFSGSKSGVTATLTIDSLQAEDEADYFCASGDSSAINDIFGSGTRLTVLG
modifications: CE3 amino acid sequence
Regarding B7, the ka in the experiment with htau40 (setting [3]) was 103000 M⁻¹ s⁻¹; with hT40 (scAb, Table 23, T441 (hT40)), 174500 M⁻¹ s⁻¹. The kd with htau40 (setting [3]) stood at 0.001718 s⁻¹; with hT40 (scAb, Table 23, T441 (hT40)), 0.000662 s⁻¹.

B8: 3aB7: anti-tau clone, SEQ ID NO: 420 (protein)
scFv: QVQLQESGPSLVKPSQTLSLTCTVSGFSLTSNGVGWVRQAPGKVPEWVGDKSSAGKTYGNPALKSRLSITRDTSKSQVSLSLSSVTTEDTAVYYCVRCRDGGVTYGYDVDYWGPGLLVTVSSEGKSSGASGESKVDDQAVLTQPSSVSKSLGQSVSITCSGSSSNVGYGDVVSWFQQFPGSAPKLLIFGTTTRASGVPDRFSGSRSGNAATLTINSLQAEDEADYYCASFDSDSGGIAGSGTRLTVLG
modifications: 3aB7 amino acid sequence
In the experiment with hT40 (setting [1]), B8 gave a ka of 207200 M⁻¹ s⁻¹ and a kd of 0.01435 s⁻¹.

B9: 3aH6: anti-tau clone, SEQ ID NO: 423 (protein)
scFv: QVQLQESGPSLVKPSQTLSLTCTVSGFSLSSNGVGWVRQAPGKVPEWLGDISSVGKKYANPALKSRLSFTRDTSKSQVSLSLSSVTTEDTAVYYCVKCRDGGVTYGYDIDYWGPGLLVTASSEGKSSGASGESKVDDQAVVTQPSSVSGSLGQSVSITCSGSSGNVGYGDYVSWFQQFHGSAPKLLIYGATNLASGVPARFSGSRSGNTATLTISSLHAEDEADYYCASYDSSSGGVFGSGTRLTVLG
modifications: 3aH6 amino acid sequence
With B9, the values for the ka with htau40 (setting [2]) and with hT40 (setting [1]) were 3.128e+06 M⁻¹ s⁻¹ and 2.757e+06 M⁻¹ s⁻¹, respectively. Moreover, the kd with htau40 (setting [2]) was determined as 0.0001522 s⁻¹; with hT40 (setting [1]), 0.009868 s⁻¹. The Kd in the experiment with htau40 (newly converted mAbs, Table 25 (Example 28), read-out: kD (M) for hT40 binding) was 4.9e-11 M.

One may read the Kd as the concentration at which binding is half-saturated.
